Measured values: article PMC11575451 (The Journal of Cell Biology, 2024)

Target: T1, FLAG-HA-RTN3L (human, UniProt O95197 1-1032)
T1 sequence (looked up): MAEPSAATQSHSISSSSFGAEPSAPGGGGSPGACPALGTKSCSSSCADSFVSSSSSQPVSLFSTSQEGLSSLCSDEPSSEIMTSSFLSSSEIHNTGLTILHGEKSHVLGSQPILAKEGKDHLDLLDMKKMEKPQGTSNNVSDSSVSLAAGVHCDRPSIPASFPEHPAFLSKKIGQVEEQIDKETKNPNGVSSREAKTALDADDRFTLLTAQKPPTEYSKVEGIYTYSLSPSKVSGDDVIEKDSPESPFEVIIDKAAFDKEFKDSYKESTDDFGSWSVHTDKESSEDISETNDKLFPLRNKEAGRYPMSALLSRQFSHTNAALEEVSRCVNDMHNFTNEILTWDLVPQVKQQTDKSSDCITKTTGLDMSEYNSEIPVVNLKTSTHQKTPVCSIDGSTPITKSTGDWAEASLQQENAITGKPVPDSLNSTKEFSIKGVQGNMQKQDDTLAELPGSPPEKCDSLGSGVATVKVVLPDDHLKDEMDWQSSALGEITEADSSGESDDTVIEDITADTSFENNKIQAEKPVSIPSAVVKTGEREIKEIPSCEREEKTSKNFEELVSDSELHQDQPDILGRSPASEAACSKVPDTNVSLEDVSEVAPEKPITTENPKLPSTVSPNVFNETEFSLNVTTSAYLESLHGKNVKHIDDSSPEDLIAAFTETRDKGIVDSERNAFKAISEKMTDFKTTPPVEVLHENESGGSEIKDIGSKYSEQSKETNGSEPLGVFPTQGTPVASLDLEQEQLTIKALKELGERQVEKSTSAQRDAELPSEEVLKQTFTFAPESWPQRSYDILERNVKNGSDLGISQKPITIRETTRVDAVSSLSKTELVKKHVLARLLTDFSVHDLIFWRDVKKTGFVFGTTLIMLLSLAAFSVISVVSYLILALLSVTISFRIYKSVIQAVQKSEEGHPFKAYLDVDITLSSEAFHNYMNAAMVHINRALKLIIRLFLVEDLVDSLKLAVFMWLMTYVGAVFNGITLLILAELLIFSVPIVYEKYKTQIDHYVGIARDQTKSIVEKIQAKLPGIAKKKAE
Assay: co-IP

B1: PEF1 (natural protein, human (endogenous in U2OS), UniProt Q9UBV8 1-284, looked up)
chain: MASYPYRQGCPGAAGQAPGAPPGSYYPGPPNSGGQYGSGLPPGGGYGGPAPGGPYGPPAGGGPYGHPNPGMFPSGTPGGPYGGAAPGGPYGQPPPSSYGAQQPGLYGQGGAPPNVDPEAYSWFQSVDSDHSGYISMKELKQALVNCNWSSFNDETCLMMINMFDKTKSGRIDVYGFSALWKFIQQWKNLFQQYDRDRSGSISYTELQQALSQMGYNLSPQFTQLLVSRYCPRSANPAMQLDRFIQVCTQLQVLTEAFREKDTAVQGNIRLSFEDFVTMTASRML
B1 was tested, and the “PEF1 precipitated in the tagged sample relative to the untagged control” value was 4.8 x.
